Data set [1] deals with HeLa Kyoto. The experiment in a line: solubility change mitosis vs G1/S (difference of NP-40 vs SDS log2 ratios) (log2 ratio difference); higher = more soluble in mitosis.
Data set [2] has as its system HeLa Kyoto. The experiment in a line: solubility in G1/S (NP-40 vs SDS abundance) (log2 ratio); higher = more soluble. Particulars: cell cycle stage: G1/S.
Data set [3] has as its system HeLa Kyoto. The experiment in a line: melting temperature (median over replicates), in situ; higher = more thermally stable.
Data set [4] concerns HeLa Kyoto. As to the kind of experiment: thermal stability score vs G1/S (z-score of summed log2 fold changes over temperatures); higher = more thermally stable than in G1/S.
Where [5] appears, read: cell cycle stage: early G1 (4.5 h after nocodazole release).
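For melting temperature (median over replicates), in situ in this document: HeLa Kyoto cells synchronized by double thymidine or nocodazole block, proteins quantified by TMT10plex mass spectrometry, three independent biological replicates.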
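For solubility change mitosis vs G1/S (difference of NP-40 vs SDS log2 ratios) in this document: synchronized HeLa Kyoto cells (double thymidine block for G1/S, nocodazole release for mitosis), protein amounts in NP-40 versus SDS lysates quantified by mass spectrometry, three biological replicates.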
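For solubility in G1/S (NP-40 vs SDS abundance) in this document: HeLa Kyoto cells arrested at G1/S by double thymidine block, proteins quantified by TMT10plex mass spectrometry in mild NP-40 versus SDS extracts, three biological replicates.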
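For thermal stability score vs G1/S (z-score of summed log2 fold changes over temperatures) in this document: synchronized HeLa Kyoto cells, proteins quantified by TMT10plex mass spectrometry, three biological replicates, mitosis taken 0.5 h after nocodazole release, G1/S directly after double thymidine block.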

In the case of “MEAAAVTVTRSATRRRRRQLQGLAAPEAGTQEEQEDQEPRPRRRRPGRSIKDEEEETVFREVVSFSPDPLPVRYYDKDTTKPISFYLSSLEELLAWKPRLEDGFNVALEPLACRQPPLSSQRPRTLLCHDMMGGYLDDRFIQGSVVQTPYAFYHWQCIDVFVYFSHHTVTIPPVGWTNTAHRHGVCVLGTFITEWNEGGRLCEAFLAGDERSYQAVADRLVQITQFFRFDGWLINIENSLSLAAVGNMPPFLRYLTTQLHRQVPGGLVLWYDSVVQSGQLKWQDELNQHNRVFFDSCDGFFTNYNWREEHLERMLGQAGERRADVYVGVDVFARGNVVGGRFDTDKSLELIRKHGFSVALFAPGWVYECLEKKDFFQNQDKFWGRLERYLPTHSICSLPFVTSFCLGMGARRVCYGQEEAVGPWYHLSAQEIQPLFGEHRLGGDGRGWVRTHCCLEDAWHGGSSLLVRGVIPPEVGNVAVRLFSLQAPVPPKIYLSMVYKLEGPTDVTVALELTTGDAGSCHIGGISVLNAETSSRHSLRPLRVPPTKLARWVGRCGRQLSGGWVQHCYEVSLRGCLLLDLLVCFSRPPGSREEESFTCRLGEIQVVDAASLLAPLPQVQAVTISHIRWQPSASEREGPPALLQLSCTLHWSFLLSQVRCFRIHCWGGMSDDSPGRELPRPEMPMFLGLAFATQYRIVDLLVEAAGPGQDRRMEFLVEPVPKEGFRVPQAEWGRAVLLYSAPA [ENGASE]”, in the data set on HeLa Kyoto [1], the “solubility change mitosis (log2)” value was -0.0912. Besides, the “solubility in G1/S (log2)” value with HeLa Kyoto [2] is -0.179. Further, the melting temperature in the data set with HeLa Kyoto [3] (cell cycle stage: G1/S) amounted to 53.6 °C; in the data set on HeLa Kyoto [3] (cell cycle stage: mitosis), 53.4 °C. Further, the results for the thermal stability score with HeLa Kyoto [4] (setting [5]) and in the data set on HeLa Kyoto [4] (cell cycle stage: mitosis) were 0.438 and -0.925, respectively.

In the case of “MEADASVDMFSKVLEHQLLQTTKLVEEHLDSEIQKLDQMDEDELERLKEKRLQALRKAQQQKQEWLSKGHGEYREIPSERDFFQEVKESENVVCHFYRDSTFRCKILDRHLAILSKKHLETKFLKLNVEKAPFLCERLHIKVIPTLALLKDGKTQDYVVGFTDLGNTDDFTTETLEWRLGSSDILNYSGNLMEPPFQNQKKFGTNFTKLEKKTIRGKKYDSDSDDD [TXNDC9]”, the “solubility change mitosis (log2)” value in the data set with HeLa Kyoto [1] is 0.0132. In addition, the “solubility in G1/S (log2)” value in the data set on HeLa Kyoto [2] came to 0.273. The figures for the melting temperature in the data set with HeLa Kyoto [3] (cell cycle stage: G1/S) and in the data set on HeLa Kyoto [3] (cell cycle stage: mitosis) were 52.4 °C and 52.7 °C, respectively. Moreover, the thermal stability score in the data set with HeLa Kyoto [4] (setting [5]) is 1; with HeLa Kyoto [4] (cell cycle stage: mitosis) it was 0.636.

On to “MEAERGPERRPAERSSPGQTPEEGAQALAEFAALHGPALRASGVPERYWGRLLHKLEHEVFDAGEVFGIMQVEEVEEEEDEAAREVRKQQPNPGNELCYKVIVTRESGLQAAHPNSIFLIDHAWTCRVEHARQQLQQVPGLLHRMANLMGIEFHGELPSTEAVALVLEEMWKFNQTYQLAHGTAEEKMPVWYIMDEFGSRIQHADVPSFATAPFFYMPQQVAYTLLWPLRDLDTGEEVTRDFAYGETDPLIRKCMLLPWAPTDMLDLSSCTPEPPAEHYQAILEENKEKLPLDINPVVHPHGHIFKVYTDVQQVASSLTHPRFTLTQSEADADILFNFSHFKDYRKLSQERPGVLLNQFPCENLLTVKDCLASIARRAGGPEGPPWLPRTFNLRTELPQFVSYFQQRERWGEDNHWICKPWNLARSLDTHVTKSLHSIIRHRESTPKVVSKYIESPVLFLREDVGKVKFDIRYIVLLRSVRPLRLFVYDVFWLRFSNRAFALNDLDDYEKHFTVMNYDPDVVLKQVHCEEFIPEFEKQYPEFPWTDVQAEIFRAFTELFQVACAKPPPLGLCDYPSSRAMYAVDLMLKWDNGPDGRRVMQPQILEVNFNPDCERACRYHPTFFNDVFSTLFLDQPGGCHVTCLV [TTLL12]”, for which the “solubility change mitosis (log2)” value in the data set with HeLa Kyoto [1] was -0.125. For the same substance, in the data set on HeLa Kyoto [2], the “solubility in G1/S (log2)” value amounted to 0.0605. Also, the results for the melting temperature in the data set with HeLa Kyoto [3] (cell cycle stage: G1/S) and in the data set with HeLa Kyoto [3] (cell cycle stage: mitosis) were 47.6 °C and 48.4 °C, respectively. For the same substance, the thermal stability score in the data set with HeLa Kyoto [4] (setting [5]) came out at 2; in the data set on HeLa Kyoto [4] (cell cycle stage: mitosis), 3.92.

“MEASWRQVAGGRGRSRGRATAAPSGNGVHLRGAGGGREKGSVGAVPSGTSPGGVATTAAAGSRHSPAGSQALQTTAASELMSQKKFEEIKKANQAAARKLVEEQFSSSSEEGDEDFEGKQGKILANTFITYTTQTDGDTRELERTKQYVNEAFQAGAMTCLICIASVKRNQAVWSCSGCFCIFHMPCIQKWAKDSQFLVSSVTDDDFGKKDCPWPCPKCRFEYKRSETPSRYYCYCGKVEDPPLDPWLVPHSCGQVCEREFKPPCGHKCLLLCHPGPCPPCPKMVTTTCYCKKAKPIPRRCSAKEWSCQLPCGQKLLCGQHKCENPCHAGSCQPCPRVSRQKCVCGKKVAERSCASPLWHCDQVCGKTLPCGNHTCEQVCHVGACGECPRSGKRFCPCQKSKFSLPCTEDVPTCGDSCDKVLECGIHRCSQRCHRGPCETCRQEVEKHCRCGKHTKRMPCHKPYLCETKCVKMRDCQKHQCRRKCCPGNCPPCDQNCGRTLGCRNHKCPSVCHRGSCYPCPETVDVKCNCGNTKVTVPCGRERTTRPPKCKEQCSRPPTCHHTSQEKHRCHFGSCPPCHQPCQKVLEKCGHLCPAPCHDQALIKQTGRHQPTGPWEQPSEPAFIQTALPCPPCQVPIPMECLGKHEVSPLPCHAVGPYSCKRVCGRILDCQNHTCMKECHKVTKTDGCTGKNKAGPECLHCEEGCSKSRPLGCLHPCILRCHPGECPPCVQMLRIKCHCKITSLYVECRKITTADVNEKNLLSCCKNQCPKELPCGHRCKEMCHPGECPFNCNQKVKLRCPCKRIKKELQCNKVRENQVSIECDTTCKEMKRKASEIKEAEAKAALEEEKRRQQAELEAFENRLKGRRKKNRKRDEVAVELSLWQKHKYYLISVCGVVVVVFAWYITHDVN [NFXL1]”: in the data set with HeLa Kyoto [1], the “solubility change mitosis (log2)” value was 0.0441. Moreover, in the data set with HeLa Kyoto [2], the “solubility in G1/S (log2)” value was -0.509. Also, the melting temperature in the data set on HeLa Kyoto [3] (cell cycle stage: G1/S) was determined as 50.2 °C; with HeLa Kyoto [3] (cell cycle stage: mitosis), 50.5 °C. In addition, the thermal stability score with HeLa Kyoto [4] (setting [5]) was 1.02; in the data set with HeLa Kyoto [4] (cell cycle stage: mitosis) it was 1.56.

“MEATGTWALLLALALLLLLTLALSGTRARGHLPPGPTPLPLLGNLLQLRPGALYSGLMRLSKKYGPVFTIYLGPWRPVVVLVGQEAVREALGGQAEEFSGRGTVAMLEGTFDGHGVFFSNGERWRQLRKFTMLALRDLGMGKREGEELIQAEARCLVETFQGTEGRPFDPSLLLAQATSNVVCSLLFGLRFSYEDKEFQAVVRAAGGTLLGVSSQGGQTYEMFSWFLRPLPGPHKQLLHHVSTLAAFTVRQVQQHQGNLDASGPARDLVDAFLLKMAQEEQNPGTEFTNKNMLMTVIYLLFAGTMTVSTTVGYTLLLLMKYPHVQKWVREELNRELGAGQAPSLGDRTRLPYTDAVLHEAQRLLALVPMGIPRTLMRTTRFRGYTLPQGTEVFPLLGSILHDPNIFKHPEEFNPDRFLDADGRFRKHEAFLPFSLGKRVCLGEGLAKAELFLFFTTILQAFSLESPCPPDTLSLKPTVSGLFNIPPAFQLQVRPTDLHSTTQTR [CYP2S1]”: the “solubility change mitosis (log2)” value in the data set with HeLa Kyoto [1] is -0.159. The “solubility in G1/S (log2)” value in the data set with HeLa Kyoto [2] is -0.0959. Besides, the melting temperature in the data set on HeLa Kyoto [3] (cell cycle stage: G1/S) and in the data set on HeLa Kyoto [3] (cell cycle stage: mitosis) was 57.4 °C throughout. Moreover, the values for the thermal stability score with HeLa Kyoto [4] (setting [5]) and in the data set with HeLa Kyoto [4] (cell cycle stage: mitosis) were -1.27 and 0.83, respectively.

As to “MECLRSLPCLLPRAMRLPRRTLCALALDVTSVGPPVAACGRRANLIGRSRAAQLCGPDRLRVAGEVHRFRTSDVSQATLASVAPVFTVTKFDKQGNVTSFERKKTELYQELGLQARDLRFQHVMSITVRNNRIIMRMEYLKAVITPECLLILDYRNLNLEQWLFRELPSQLSGEGQLVTYPLPFEFRAIEALLQYWINTLQGKLSILQPLILETLDALVDPKHSSVDRSKLHILLQNGKSLSELETDIKIFKESILEILDEEELLEELCVSKWSDPQVFEKSSAGIDHAEEMELLLENYYRLADDLSNAARELRVLIDDSQSIIFINLDSHRNVMMRLNLQLTMGTFSLSLFGLMGVAFGMNLESSLEEDHRIFWLITGIMFMGSGLIWRRLLSFLGRQLEAPLPPMMASLPKKTLLADRSMELKNSLRLDGLGSGRSILTNR [MRS2]”, in the data set on HeLa Kyoto [1], the “solubility change mitosis (log2)” value amounted to 0.124. In addition, the “solubility in G1/S (log2)” value with HeLa Kyoto [2] is -0.297. In addition, the melting temperature turned out to be 55.4 °C in the data set with HeLa Kyoto [3] (cell cycle stage: G1/S) and 54.5 °C in the data set on HeLa Kyoto [3] (cell cycle stage: mitosis). Also, the thermal stability score in the data set on HeLa Kyoto [4] (setting [5]) is -1.88; in the data set with HeLa Kyoto [4] (cell cycle stage: mitosis), -2.56.

For MED14, in the data set on HeLa Kyoto [1], the “solubility change mitosis (log2)” value is -0.0671. The “solubility in G1/S (log2)” value with HeLa Kyoto [2] was -0.117. For the same substance, the results for the melting temperature in the data set on HeLa Kyoto [3] (cell cycle stage: G1/S) and in the data set with HeLa Kyoto [3] (cell cycle stage: mitosis) were 48.7 °C and 50.1 °C, respectively. Also, the thermal stability score in the data set on HeLa Kyoto [4] (setting [5]) was 0.0685; with HeLa Kyoto [4] (cell cycle stage: mitosis), 1.11.

As for “MEDFARGAASPGPSRPGLVPVSIIGAEDEDFENELETNSEEQNSQFQSLEQVKRRPAHLMALLQHVALQFEPGPLLCCLHADMLGSLGPKEAKKAFLDFYHSFLEKTAVLRVPVPPNVAFELDRTRADLISEDVQRRFVQEVVQSQQVAVGRQLEDFRSKRLMGMTPWEQELAQLEAWVGRDRASYEARERHVAERLLMHLEEMQHTISTDEEKSAAVVNAIGLYMRHLGVRTKSGDKKSGRNFFRKKVMGNRRSDEPAKTKKGLSSILDAARWNRGEPQVPDFRHLKAEVDAEKPGATDRKGGVGMPSRDRNIGAPGQDTPGVSLHPLSLDSPDREPGADAPLELGDSSPQGPMSLESLAPPESTDEGAETESPEPGDEGEPGRSGLELEPEEPPGWRELVPPDTLHSLPKSQVKRQEVISELLVTEAAHVRMLRVLHDLFFQPMAECLFFPLEELQNIFPSLDELIEVHSLFLDRLMKRRQESGYLIEEIGDVLLARFDGAEGSWFQKISSRFCSRQSFALEQLKAKQRKDPRFCAFVQEAESRPRCRRLQLKDMIPTEMQRLTKYPLLLQSIGQNTEEPTEREKVELAAECCREILHHVNQAVRDMEDLLRLKDYQRRLDLSHLRQSSDPMLSEFKNLDITKKKLVHEGPLTWRVTKDKAVEVHVLLLDDLLLLLQRQDERLLLKSHSRTLTPTPDGKTMLRPVLRLTSAMTREVATDHKAFYVLFTWDQEAQIYELVAQTVSERKNWCALITETAGSLKVPAPASRPKPRPSPSSTREPLLSSSENGNGGRETSPADARTERILSDLLPFCRPGPEGQLAATALRKVLSLKQLLFPAEEDNGAGPPRDGDGVPGGGPLSPARTQEIQENLLSLEETMKQLEELEEEFCRLRPLLSQLGGNSVPQPGCT [ARHGEF1]”, in the data set with HeLa Kyoto [1], the “solubility change mitosis (log2)” value is -0.134. Moreover, in the data set on HeLa Kyoto [2], the “solubility in G1/S (log2)” value came out at 0.0626. Moreover, the melting temperature with HeLa Kyoto [3] (cell cycle stage: G1/S) amounted to 49.2 °C; in the data set on HeLa Kyoto [3] (cell cycle stage: mitosis), 49.1 °C. The thermal stability score in the data set with HeLa Kyoto [4] (setting [5]) came to 1.08; in the data set on HeLa Kyoto [4] (cell cycle stage: mitosis) it was 1.58.
